Measurements from US20220047715A1, “FORCE-DEPENDENT DRUG RELEASE SYSTEM TO ENHANCE SELECTIVE KILLING AND MINIMIZE ADVERSE EFFECTS IN CANCER TREATMENT” (THE JOHNS HOPKINS UNIVERSITY, priority 2018, published 2022).

Assays:
CTLA4-CD80 bond = experiment: Micropillar-based measurement for CTLA4-CD80 tension; format: cell-based, human; conditions: cancer cells on micropillars, FIG. 3b
Experimental: FIG. 3: Micropillar-based measurement for CTLA4-CD80 tension. (a) A cancer cell is cultured on micropillars. The forces transmitted to the CTLA4-CD80 bond bend the micropillars. (b) Cancer cells can generate ˜2-fold higher stress than normal cells. […] (c) Cancer cells generate 4-fold higher stress transmitted to the CTLA4-CD80 bond compared to integrin-fibronectin bond. Scale bar: 5 μm.
To determine which of the two possibilities described above is likely to be true, we measured the forces CTLA4 exerts on the CD80 upon binding in both normal cells and breast cancer cells. Since trans-endocytosis requires high forces to physically remove CD80 from the cell membrane of the APC, followed by internalization, we tested whether cancer cells yield higher forces if trans-endocytosis is the unique mechanism used by cancer cells to achieve immunosuppression. We tested the human breast cancer cells MDA-MB-231 and their normal counterpart MCF10A cells, as well as the mouse breast cancer cells EO771 and their normal counterpart EPH4-EV, all of which express CTLA4 (FIG. 1). […] We also measured the forces transmitted via CTLA4 in Treg cells purified from mouse spleens. […] Moreover, when HEK293 cells, in which endogenous CTLA4 is not detected, were transfected with CTLA4 cDNA, only minimal level of forces and no trans-endocytosis of CD80 could be recorded (FIG. 2 panel c).

[1] = cited from earlier work

| Compound | force generation transmitted through the CTLA4-CD80 bond (CTLA4-CD80 bond) | patients experiencing skin lesions, colitis, hepatitis, hypophysitis, thyroiditis and other immune-related events ([1]; Ipilimumab alone, 81 reports, 1265 patients, 22 clinical trials) | patients experiencing adverse events ([1]; one study) |
| --- | --- | --- | --- |
| Cc1ccc2c(c1)C(=O)C1(O)CCN(c3ccccc3)C1=N2 (stereo not drawn) [Blebbistatin] | does not inhibit |  |  |
| Ipilimumab |  | 72% | 85% |
